Assay results taken from patent publication US20210079558A1.

Target: Protein A expressed on Staphylococcus aureus (Staphylococcus aureus) (UniProt P38507)
Test: yeast display; one round of selection with cell-surface biotinylated S. aureus and magnetic streptavidin-coated beads; GFP+ yeast counted by flow cytometry

Fc region of the human IgG1 protein N297Q (aglycosylated) mutant, displayed on the surface of yeast
fold enrichment of GFP+ yeast: 30 fold
